The results in this text go back to publication doi:10.1101/2025.02.20.639226, “In vitro reconstitution of minimal human centrosomes” (bioRxiv, 2025).

Test [1] has as its target GFP::CDK5RAP2 isoform B (full-length, wild type) (human) (UniProt Q96SN8). Nature of the test: partitioning into in vitro scaffolds, confocal fluorescence microscopy; 4-component asters: 167nm GFP::CDK5RAP2, 33nM mBFP::γ-TuRCs, 33nM mCherry::HSET, 13μM HiLyte-647-labeled α/β tubulin; 50mM KCl, 25mM HEPES, pH7.4, IgM+; no ATP·MgCl2; compared with 3-component asters.
In test [2] the target is T1, GFP::CDK5RAP2 isoform B (full-length, wild type) (human, UniProt Q96SN8-4 1-1814).
T1 construct: CDK5 regulatory subunit-associated protein 2 (CDK5RAP2/CEP215), human, isoform B, Protein ID Q96SN8-4, lacking a.a; 1576-1654 of the longest isoform; Stood in the assays as micron-scale assemblies nucleated by an anti-CM2 IgM; also called CEP215; GFP::CDK5RAP2 scaffolds; source: SF9 insect cells (baculovirus, FlexiBAC), purified (Ni-NTA, MBP trap beads, eluted with PreScission protease)
T1 sequence (Q96SN8 other isoform, or with tags, fused parts or gaps): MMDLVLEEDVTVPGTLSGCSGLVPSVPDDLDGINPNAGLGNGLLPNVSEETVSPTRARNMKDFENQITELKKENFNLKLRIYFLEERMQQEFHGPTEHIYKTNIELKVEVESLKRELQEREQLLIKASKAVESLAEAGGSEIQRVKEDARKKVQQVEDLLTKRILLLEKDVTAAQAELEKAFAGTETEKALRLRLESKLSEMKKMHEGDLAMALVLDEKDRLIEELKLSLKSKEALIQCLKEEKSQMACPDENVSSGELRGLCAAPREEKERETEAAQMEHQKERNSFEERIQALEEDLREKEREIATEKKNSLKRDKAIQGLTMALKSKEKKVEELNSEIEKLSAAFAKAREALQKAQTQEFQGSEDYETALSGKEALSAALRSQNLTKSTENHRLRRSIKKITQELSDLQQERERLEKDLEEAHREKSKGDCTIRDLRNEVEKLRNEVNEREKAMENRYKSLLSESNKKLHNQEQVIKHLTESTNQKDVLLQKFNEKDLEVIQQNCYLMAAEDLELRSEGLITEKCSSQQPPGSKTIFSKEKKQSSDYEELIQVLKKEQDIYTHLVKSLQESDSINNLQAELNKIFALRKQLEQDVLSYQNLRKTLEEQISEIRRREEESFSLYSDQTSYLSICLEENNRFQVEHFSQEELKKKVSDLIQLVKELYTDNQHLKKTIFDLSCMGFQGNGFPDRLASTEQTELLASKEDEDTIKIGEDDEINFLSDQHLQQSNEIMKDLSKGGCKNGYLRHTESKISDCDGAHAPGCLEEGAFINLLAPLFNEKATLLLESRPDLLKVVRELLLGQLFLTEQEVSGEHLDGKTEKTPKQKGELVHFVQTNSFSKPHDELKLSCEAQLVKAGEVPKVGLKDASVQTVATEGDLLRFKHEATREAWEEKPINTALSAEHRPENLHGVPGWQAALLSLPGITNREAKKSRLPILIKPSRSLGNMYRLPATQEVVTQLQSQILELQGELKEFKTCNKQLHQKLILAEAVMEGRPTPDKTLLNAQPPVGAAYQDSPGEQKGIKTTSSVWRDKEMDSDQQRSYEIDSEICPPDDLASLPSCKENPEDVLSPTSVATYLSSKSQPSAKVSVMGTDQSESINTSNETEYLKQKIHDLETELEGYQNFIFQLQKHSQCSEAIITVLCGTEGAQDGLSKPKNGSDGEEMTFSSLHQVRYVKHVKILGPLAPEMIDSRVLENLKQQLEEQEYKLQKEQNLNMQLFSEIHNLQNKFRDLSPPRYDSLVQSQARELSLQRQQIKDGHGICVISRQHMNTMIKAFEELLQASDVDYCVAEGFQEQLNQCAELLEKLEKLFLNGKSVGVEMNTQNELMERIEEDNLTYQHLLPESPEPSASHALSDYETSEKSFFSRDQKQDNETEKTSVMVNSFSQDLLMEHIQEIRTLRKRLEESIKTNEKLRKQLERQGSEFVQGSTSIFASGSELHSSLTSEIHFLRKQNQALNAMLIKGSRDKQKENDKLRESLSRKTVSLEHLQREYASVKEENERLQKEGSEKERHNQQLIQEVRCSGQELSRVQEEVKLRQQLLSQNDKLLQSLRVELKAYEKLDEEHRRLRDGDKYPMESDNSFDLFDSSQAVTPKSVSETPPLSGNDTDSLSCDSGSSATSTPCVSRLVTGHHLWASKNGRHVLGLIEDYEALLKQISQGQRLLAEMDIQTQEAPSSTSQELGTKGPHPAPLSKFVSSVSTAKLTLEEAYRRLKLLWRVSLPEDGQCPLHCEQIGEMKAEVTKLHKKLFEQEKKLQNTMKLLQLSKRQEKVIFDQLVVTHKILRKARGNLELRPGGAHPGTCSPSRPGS
Nature of the test: partitioning into in vitro scaffolds, confocal fluorescence microscopy; GFP::CDK5RAP2 assemblies (120nM) induced with anti-CM2 IgM; mCherry, full-length or ΔIDR mCherry::HSET at 50nM; 50mM KCl, 25mM HEPES; partition coefficient. The conditions noted are these: both partners purified.

GFP::CDK5RAP2 isoform B (full-length, wild type) (human), sequence (Q96SN8 other isoform, or with tags, fused parts or gaps): as above

Turning to “human gamma tubulin ring complex tagged with blue fluorescent protein (mBFP::γ-TuRC) (from UniProt P23258 1-451)”, in test [1], the fold more recruited into scaffolds in the presence of mCherry::HSET (4-component against 3-component) turned out to be 1.4 fold.

B1: mCherry::HSET (full-length, wild type) (natural protein, human, UniProt Q9BW19 1-673, looked up)
chain: MDPQRSPLLEVKGNIELKRPLIKAPSQLPLSGSRLKRRPDQMEDGLEPEKKRTRGLGATTKITTSHPRVPSLTTVPQTQGQTTAQKVSKKTGPRCSTAIATGLKNQKPVPAVPVQKSGTSGVPPMAGGKKPSKRPAWDLKGQLCDLNAELKRCRERTQTLDQENQQLQDQLRDAQQQVKALGTERTTLEGHLAKVQAQAEQGQQELKNLRACVLELEERLSTQEGLVQELQKKQVELQEERRGLMSQLEEKERRLQTSEAALSSSQAEVASLRQETVAQAALLTEREERLHGLEMERRRLHNQLQELKGNIRVFCRVRPVLPGEPTPPPGLLLFPSGPGGPSDPPTRLSLSRSDERRGTLSGAPAPPTRHDFSFDRVFPPGSGQDEVFEEIAMLVQSALDGYPVCIFAYGQTGSGKTFTMEGGPGGDPQLEGLIPRALRHLFSVAQELSGQGWTYSFVASYVEIYNETVRDLLATGTRKGQGGECEIRRAGPGSEELTVTNARYVPVSCEKEVDALLHLARQNRAVARTAQNERSSRSHSVFQLQISGEHSSRGLQCGAPLSLVDLAGSERLDPGLALGPGERERLRETQAINSSLSTLGLVIMALSNKESHVPYRNSKLTYLLQNSLGGSAKMLMFVNISPLEENVSESLNSLRFASKVNQCVIGTAQANRK
notes: HSET/KifC1, kinesin-14 motor protein, human; also called KifC1; HSET/KifC1; source: SF9 insect cells (baculovirus, FlexiBAC), purified (Ni-NTA)
In the case of B1, the binding result in test [2] was “binds”.
